The target in this data set is recombinant PP5 (UniProt P53041).
Sequence of recombinant PP5 (P53041 whole entry): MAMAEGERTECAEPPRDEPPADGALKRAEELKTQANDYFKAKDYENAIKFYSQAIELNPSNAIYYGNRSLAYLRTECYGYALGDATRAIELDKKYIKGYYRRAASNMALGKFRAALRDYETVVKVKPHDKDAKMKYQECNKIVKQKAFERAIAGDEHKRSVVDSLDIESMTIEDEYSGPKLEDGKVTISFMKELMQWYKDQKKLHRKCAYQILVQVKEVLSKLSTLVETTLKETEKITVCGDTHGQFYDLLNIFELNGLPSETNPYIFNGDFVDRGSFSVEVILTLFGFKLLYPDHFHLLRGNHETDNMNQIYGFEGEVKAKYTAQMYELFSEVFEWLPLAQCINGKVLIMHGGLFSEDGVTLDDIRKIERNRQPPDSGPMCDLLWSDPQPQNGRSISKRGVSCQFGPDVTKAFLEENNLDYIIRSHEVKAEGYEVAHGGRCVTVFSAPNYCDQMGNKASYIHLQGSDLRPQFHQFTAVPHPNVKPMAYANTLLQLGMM

As for recombinant Huwe1 wild type, the “in vitro ubiquitylation of PP5 (immunoblot for PP5)” value is “in the presence of both E1 and E2, wild type recombinant Huwe1 protein, but not Huwe1(C/S), ubiquitylated recombinant PP5 in vitro”.

For the substance “recombinant Huwe1 C4341S mutant (Huwe1 C/S)”, the “in vitro ubiquitylation of PP5 (immunoblot for PP5)” value is “wild type recombinant Huwe1 protein, but not Huwe1(C/S), ubiquitylated recombinant PP5 in vitro”.

The values are drawn from US20140336202.
